Target: integrins αVβ3 and αVβ5
Assay: inhibition of Ch-1 cell adhesion to coated PIIBNP by synthetic peptide (FIG. 3C)

| Binder | IC50 |
| --- | --- |
| GRGDNP [synthetic GRGDNP peptide] | 10 µM |
| GRADNP [synthetic GRADNP peptide] | 60 µM |
